The target in test [1] is AD8 WT Env (gp160, from lysed pseudovirions / on pseudovirus) (HIV-1 AD8, clade B). Nature of the test: cell-based or functional assay.
Test [2] has as its target T1, SS-B (human, UniProt P05455 1-408).
T1 sequence (looked up): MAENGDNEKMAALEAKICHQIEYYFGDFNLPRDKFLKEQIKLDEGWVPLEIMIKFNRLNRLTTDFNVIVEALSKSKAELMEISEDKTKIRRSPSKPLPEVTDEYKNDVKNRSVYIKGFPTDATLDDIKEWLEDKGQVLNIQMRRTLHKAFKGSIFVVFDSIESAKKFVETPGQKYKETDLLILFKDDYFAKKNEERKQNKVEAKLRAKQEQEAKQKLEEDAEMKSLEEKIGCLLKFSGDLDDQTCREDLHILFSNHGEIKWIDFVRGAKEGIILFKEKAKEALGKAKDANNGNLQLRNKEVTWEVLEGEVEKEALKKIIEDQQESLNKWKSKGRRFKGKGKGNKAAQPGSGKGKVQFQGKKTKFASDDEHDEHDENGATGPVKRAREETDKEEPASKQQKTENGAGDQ
Nature of the test: single autoantigen ELISA (AESKULISA ANA-8Pro), FIG. 9A; antibody printed as '1879'. Background: In an ELISA, binding on a coated surface is turned into a signal by an enzyme label.

Another test addresses T2, Jo-1 (human, UniProt P12081 1-509).
T2 sequence (looked up): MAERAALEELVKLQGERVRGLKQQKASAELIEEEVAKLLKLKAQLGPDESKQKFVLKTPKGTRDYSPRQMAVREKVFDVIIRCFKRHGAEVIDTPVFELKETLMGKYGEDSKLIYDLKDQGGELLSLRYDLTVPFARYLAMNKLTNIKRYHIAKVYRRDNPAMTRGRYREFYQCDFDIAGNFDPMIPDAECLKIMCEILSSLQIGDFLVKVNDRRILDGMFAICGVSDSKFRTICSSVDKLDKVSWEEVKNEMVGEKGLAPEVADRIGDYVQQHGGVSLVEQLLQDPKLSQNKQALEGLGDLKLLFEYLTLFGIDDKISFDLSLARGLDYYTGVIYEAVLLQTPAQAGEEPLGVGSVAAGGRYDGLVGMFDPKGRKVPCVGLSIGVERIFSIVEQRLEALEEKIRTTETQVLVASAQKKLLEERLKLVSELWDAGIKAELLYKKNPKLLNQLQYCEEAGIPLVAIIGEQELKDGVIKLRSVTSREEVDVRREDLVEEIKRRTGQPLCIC
The description is as above.

Test [3] deals with T3, Scl-70 (human, UniProt P11387 1-765).
T3 sequence (looked up): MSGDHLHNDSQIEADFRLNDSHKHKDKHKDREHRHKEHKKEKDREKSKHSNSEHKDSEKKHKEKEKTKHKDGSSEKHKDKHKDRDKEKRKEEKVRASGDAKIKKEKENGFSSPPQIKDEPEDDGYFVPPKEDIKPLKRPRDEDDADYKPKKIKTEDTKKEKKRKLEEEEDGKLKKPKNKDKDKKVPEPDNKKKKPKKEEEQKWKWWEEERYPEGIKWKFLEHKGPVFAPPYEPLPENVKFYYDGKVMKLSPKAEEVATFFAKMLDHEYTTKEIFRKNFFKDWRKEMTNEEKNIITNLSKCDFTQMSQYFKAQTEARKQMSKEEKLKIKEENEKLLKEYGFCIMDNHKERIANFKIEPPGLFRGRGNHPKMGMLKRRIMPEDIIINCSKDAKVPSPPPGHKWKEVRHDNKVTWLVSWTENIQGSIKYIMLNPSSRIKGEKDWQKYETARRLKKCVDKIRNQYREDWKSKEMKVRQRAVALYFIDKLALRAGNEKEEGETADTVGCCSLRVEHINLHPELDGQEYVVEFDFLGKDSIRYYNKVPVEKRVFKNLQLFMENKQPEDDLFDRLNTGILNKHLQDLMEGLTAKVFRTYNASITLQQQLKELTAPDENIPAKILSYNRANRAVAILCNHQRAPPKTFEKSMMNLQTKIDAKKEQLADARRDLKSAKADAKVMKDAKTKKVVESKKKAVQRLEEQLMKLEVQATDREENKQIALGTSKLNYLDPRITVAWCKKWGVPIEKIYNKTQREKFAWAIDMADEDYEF
The description is as above.

For a further test, the target named is T4, CenpB (human, UniProt P07199 1-599).
T4 sequence (looked up): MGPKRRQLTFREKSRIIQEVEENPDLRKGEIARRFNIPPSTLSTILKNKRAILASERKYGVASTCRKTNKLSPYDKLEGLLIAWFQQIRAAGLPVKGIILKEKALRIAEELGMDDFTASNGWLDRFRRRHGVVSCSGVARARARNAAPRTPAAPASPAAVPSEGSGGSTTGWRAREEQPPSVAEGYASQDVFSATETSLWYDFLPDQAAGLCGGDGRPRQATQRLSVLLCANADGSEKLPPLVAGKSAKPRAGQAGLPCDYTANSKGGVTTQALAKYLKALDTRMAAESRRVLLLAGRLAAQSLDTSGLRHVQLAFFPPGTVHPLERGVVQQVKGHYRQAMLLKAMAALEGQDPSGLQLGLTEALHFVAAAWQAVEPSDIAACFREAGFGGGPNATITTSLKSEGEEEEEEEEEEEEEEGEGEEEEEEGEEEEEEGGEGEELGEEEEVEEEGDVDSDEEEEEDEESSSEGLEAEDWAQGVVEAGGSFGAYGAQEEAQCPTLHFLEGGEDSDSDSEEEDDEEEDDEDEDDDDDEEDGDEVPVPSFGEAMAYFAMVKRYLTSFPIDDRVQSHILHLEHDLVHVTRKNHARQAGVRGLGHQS
Described as above.

The target of another test is T5, monomeric AD8 gp120 (HIV-1 AD8, clade B).
T5 construct: also called monomeric gp120; monomeric gp120 form of Env
Kind of test: direct ELISA, plates coated with 1 µg/ml Env (FIG. 6C).

In test [4] the target is T1, SS-B. Nature of the test: single autoantigen ELISA (AESKULISA ANA-8Pro), FIG. 9A.
The target in test [5] is T3, Scl-70. The description is as above.

B1: MEL-1872 (antibody)
VH: KVQLRESGPSLVKPSQTLSLTCTASGFSLSDKAVGWVRQAPGQPLEWLGTIDTTGNAVYNPGLKSRLSITKDNSKSQVSLSLSSVTTEDSATYHCSTVHQKTRRSCPSDYSFICDCEGTGSHCCRASNCPYYCNYGRDRMCTGRSNIHEWHVDAWGQGLLVTVSS
VL: QAVLTQPSSVSGSLGQRVSTTCSGSSSNVGNGYVSWYQLIPGSAPRTLIYGDTSRASGVPDRFSGSRSGNTVTLTISSLQAEDEADYFCASAEDGSSNAVFGRGTTLTV
notes: also called H 1872; BrNAb MEL-1872
For B1, the “IC50 (read off the curve); axis Neutralisation (%), panel AD8” value in test [1] is approximately 7 ng/mL. Besides, the binding result with SS-B [2], in the test with Jo-1, with Scl-70 [3] and in the test with CenpB was “no binding (tested: 100 µg/ml)” throughout.

B2: MEL-1842 (antibody)
VH: KVQLQESGPSLVKPSQTLSLTCTASGFSLSDKAVGWVRQAPGQALEWLGSIDTGGNADYNPGLKSRLSITKDNAKSQVSLSVSSVTTEGSATYYCSTVHQKTLRSCPSDYPYICDCEDTGSHCCRATNCPYYCNHGRDRMCTGRTYTYEWHVEAWGQGLLVTVSS
VL: B1 VL
notes: also called H 1842; BrNAb MEL-1842
As for B2, the binding result was “binds” with monomeric AD8 gp120, “no binding (tested: 100 µg/ml)” with SS-B [4] and “no binding (tested: 100 µg/ml)” in the test with Scl-70 [5].

B3: MEL-2129 (antibody)
VH: KVQLRESGPSLVKPSQTLSLTCTASGFSLSDKAVGWVRQAPGKALEWLGSIDTGGNAGYNPGLKSRLSITKGNSKSQVSLSVSSVTTEDSATYYCSTVHQKTRRSCPVDYYYSCDCEGSGSHCCSASNCPYYCKYGRDRVCTDKHTYSYEWYVDAWGQGLLVTVSS
VL: B1 VL
notes: also called BrNAb MEL-2129
As for B3, the binding result with SS-B [4] and with Scl-70 [5] was “no binding (tested: 100 µg/ml)” in each case.

Values taken from patent US20230272048A1 (UNIVERSITY OF MELBOURNE, published 2023).
